Results from patent US20170240633A1 (published 2017).
Where a chain is given by its changes, count along the chain named. Like-named read-outs stand apart in the source and are kept apart here. Each block holds one binder with its values, some of them ahead of it.

Tests used:
[1] = target: T1, human TIM-3 coupled to human Fc (human, UniProt Q8TDQ0 22-200); experiment: SPR
[2] = target: T1, human TIM-3 coupled to human Fc; experiment: SPR; remark: listed apart in the source

B2: anti-TIM-3 antibody clone G9 (antibody, V domains shown)
VH: QVQLQQSGAEVKKPGASVKVSCKASGYTFTSYYMHWVRQAPGQGLEWMGIINPSGGSTSYAQKFQGRVTMTRDTSTSTVYMELSSLRSEDTAVYYCARDLYSYGFYYYGMDVWGQGTTVTVSS
VL: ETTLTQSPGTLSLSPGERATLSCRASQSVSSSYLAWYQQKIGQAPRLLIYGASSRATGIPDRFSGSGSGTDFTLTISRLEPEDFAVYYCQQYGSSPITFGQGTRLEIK
Kd [1]: 630 pM

B3: anti-TIM-3 antibody clone G6 (antibody, V domains shown)
VH: QVQLQESGPGLVKPSGTLSLTCAVSGGSISSSNWWSWVRQPPGKGLEWIGEIYHSGSTNYNPSLKSRVTISVDKSKNQFSLKLSSVTAADTAVYYCARVVAVAGTVDYWGQGTLVTVSS
VL: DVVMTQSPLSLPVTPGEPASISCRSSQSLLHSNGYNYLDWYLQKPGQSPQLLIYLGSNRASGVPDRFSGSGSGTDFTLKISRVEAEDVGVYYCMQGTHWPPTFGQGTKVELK
Kd [1]: 2520 pM

B5: anti-TIM-3 antibody clone A11 (antibody, V domains shown)
VH: QVQLQQWGAGLLKPSETLSLTCAVYGGSFSGYYWSWIRQPPGKGLEWIGEINHSGSTNYNPSLKSRVTISVDTSKNQFSLKLSSVTAADTAVYYCARGYVAGFDYWGQGTLVTVSS
VL: QSVVTQPPSVSAAPGQKVTISCSGSSSNIGNNYVSWYQQLPGTAPKLLIYGNNWRPSGIPDRFSGSKSGTSATLAISGLQTGDEADYYCETWDSSLSAGVFGGGTKLTVL
Kd [2]: 1260 pM

Further binders by falling Kd [1], results first:

Kd [1]: 620 pM
B1: anti-TIM-3 antibody clone G7 (antibody, V domains shown)
VH: B2 VH with Q1E, Q5V, L100Q, Y103S, F105W
VL: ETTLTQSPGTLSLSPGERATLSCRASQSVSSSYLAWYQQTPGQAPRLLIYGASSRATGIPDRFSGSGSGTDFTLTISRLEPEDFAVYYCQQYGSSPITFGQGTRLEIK

Kd [1]: 440 pM
B4: anti-TIM-3 antibody clone A3 (antibody, V domains shown)
VH: QVQLVQSGAEVKKPGASVKVSCKASGYTFTSYYMHWVRQAPGQGLEWMGIINPSGGSTSYAQKFQGRVTMTRDTSTSTVYMELSSLRSEDTAVYYCARSPGVVTALFDYWGQGTLVTVSS
VL: DIQMTQSPSFMSASVGDRVTITCRASQDIGSYLAWYQQKPGKAPKLLIYAASTLQSGVPSRFSGSGSGTDFTLTINSLQPEDFATYYCQQSYSSPPTFGPGTTLEIK

Kd [1]: 260 pM
B6: anti-TIM-3 antibody clone B10 (antibody, V domains shown)
VH: QVQLQESGPGLVKASETLSLTCTVSGGSIGSSDYYWGWIRQPPGKGLEWIGSIYYSGSTYYNPSLKSRVTMSVDTPNNQFSLKLSSVTAADTAVYYCARGEHRGEFDYWGQGTLVTVSS
VL: EIVLTQSPATLSFSPGERATLSCRASQSVGSYLAWYQQRPGQAPRPLIYDATNRATGIPTRFSGSGSGTDFTLTISSLEPEDFATYYCQHRRTFGRGTKLEIK
